Numbering of substitutions follows the chain as printed. Names and notes keep the numbering of the source.

Data set [1] in a line: Subunit association by FPLC on Sephacryl S-100HR. It is filed as physicochemical. The following applies: for Structure (identified by FPLC): Sephacryl S-100HR, 50 mM potassium phosphate, 500 mM NaCl; for Sephacryl (mL), elution peak position: tetramer 44 to 47 mL, dimer 51 to 54 mL, monomer 63 to 66 mL. The method, then: In order to analyze the subunit association conditions of LATM2, the molecular weight of each LATM2s was measured by FPLC. Sephacryl S-100HR (manufactured by GE Healthcare) was used as a column, a Gel Filtration Calibration Kit LMW (manufactured by GE Healthcare) was used as molecular weight markers, and 50 mM potassium phosphate containing 500 mM NaCl was used as a buffer.
The positions of the peaks of eluted tetramer were defined to be 44 to 47 mL after injection of WT-TM2 as a control. The peak of an eluted monomer appeared at around 63 to 66 mL and the peak of an eluted dimer appeared at around 51 to 54 mL, from result of loading the molecular weight markers.

Data set [2] is described as follows: Purification of LATM2 with 2-iminobiotin-agarose. Type of data set: binding. The following applies: for Note (Iminobiotin-agarose): FT = column flow-through fraction; for Recovery rate (%): Iminobiotin-agarose, binding at pH 12, elution with 50 mM NH4OAC (pH 4). The method, then:
LATM2 was purified through a column charged with 2-iminobiotin-agarose (manufactured by Sigma-Aldrich Corp.) in accordance with the method by Hofmann, et al., (1980). IPTG was added to 25 mL of a culture solution of E. coli transformed with each LATM2 in a final concentration of 1 mM to induce expression. The E. coli cells were collected by centrifugation, suspended in 1.5 mL of 50 mM CAPS (pH 12) containing 50 mM NaCl, and then sonicated. To the supernatant of the disrupted cells, 500 μL of 2-iminobiotin-agarose was added, which was then packed in a column. The column was sufficiently washed with 50 mM CAPS (pH 12) containing 500 mM NaCl, and elution was then performed with 50 mM NH4OAC (pH 4).
(§1) The recovery rate in Table 2 was calculated by dividing the amount of LATM2 protein after purification by the amount of LATM2 protein before purification and was expressed by percent by multiplying the quotient by 100. The degree of purification was the ratio of the amount of LATM2 protein to the total amount of proteins in the purified fraction and was expressed by percent by multiplying the ratio by 100. The recovery rates and the degrees of purification in biotin-agarose were the results after binding at pH 7 and elution with an excess amount of biotin.

The nature of data set [3]: Purification of LATM2 with biotin-agarose. It is filed as binding. The following applies: for Recover rate (%): Biotin-agarose, binding at pH 7, recovery with 10 mM biotin. The method, then:
Purification with biotin-agarose (manufactured by Sigma-Aldrich Corp.) was performed by the following procedure. After induced expression of 25 mL of a culture solution of E. coli for each LATM2, the E. coli cells were suspended in 1.5 mL of a 100 mM potassium phosphate buffer (pH 7.0), and then sonicated. To the supernatant of the disrupted cells. 400 μL of biotin-agarose was added, which was followed by upside-down mixing for 1 hr. […]
In TM2 S36A-T78A-D116A, the E. coli cells were suspended in 1.5 mL of 50 mM CAPS (pH 12) containing 50 mM NaCl, and then sonicated. To the disrupted cells, 400 μL of biotin-agarose was added, which was followed by upside-down mixing for 1 hr. The column was sufficiently washed with 50 mM CAPS (pH 12) containing 500 mM NaCl, and elution was then performed with 1 mL of PBS (pH 7.4) containing 10 mM biotin.
In TM2 S36A-D116A, the E. coli cells were suspended in 1.5 mL of a 100 mM potassium phosphate buffer (pH 4.0), and then sonicated. To the pupernatant of the disrupted cells, 400 μL of biotin-agarose was added. Washing was performed with a 100 mM potassium phosphate buffer (pH 4) containing 500 mM NaCl, and elution was performed with 1 mL of PBS (pH 7) containing 10 mM biotin. Biotin binding to LATM2 that has been eluted with an excess amount of biotin was removed by dialysis with a 20 mM potassium phosphate buffer overnight.
as §1

In data set [4] the test system is Proteinase K. Kind of data set: Protease resistance of LATM2 (SDS-PAGE). The following applies: 5 μM Proteinase K, 30° C., 15 min, presence or absence of biotin. How it is done:
Throughout the specification, “having protease resistance” refers to that a protein is not enzymatically decomposed or not substantially decomposed by protease treatment. The protease treatment is performed by, for example, proteinase K treatment at 30° C. for 15 min. The term “not enzymatically decomposed” refers to that bands of a tetramer, dimer, and/or monomer of the protein can be clearly detected by SDS-PAGE after enzyme treatment, as in wild-type TM2. That is, a protein not having protease resistance is decomposed into small molecules by protease treatment, and bands of the tetramer, dimer, and monomer are not detected by SDS-PAGE after the protease treatment. […] Accordingly, bands of the tetramer and/or the dimer or monomer generated by dissociation of the tetramer are detected by SDS-PAGE. […] of each of the LATM2s (TM2 S36A, TM2 […], TM2 […], TM2 […], TM2 […], TM2 S36A-[…], TM2 […], and […]) purified by biotin-agarose was subjected to a reaction in 50 mM Tris-HCl (pH 8.0) containing 5 μM Proteinase K and 5 mM CaCl2 at 30° C. for 15 min. […] Then, an SDS buffer was added to each reaction solution, followed by heat treatment at 95° C. for 10 min to terminate the reaction. The resulting sample was subjected to SDS-PAGE, followed by CBB staining.

B1: TM2 T78A-D116A: TM2 with 78th threonine and 116th aspartic acid replaced with alanine; SEQ ID NO: 22 (protein)
chain: MSDVQSSLTGTWYNELNSKMELTANKDGTLTGKYLSKVGDVYVPYPLSGRYNLQPPAGQGVALGWAVSWENSKIHSAATWSGQFFSESSPVILTQWLLSSSTARGDVWESTLVGNASFTKTAPTEQQIAHAQLHCRAPRLK
modifications: Synthetic TM2 T78A-D116A
Take B1: in data set [1], the “Structure (identified by FPLC)” value was “Tetramer” and the “Sephacryl (mL), elution peak position” value was 46.37 mL. Besides, in data set [2], the “binding to 2-iminobiotin-agarose” value is on record as “did not bind”, the “Note (Iminobiotin-agarose)” value is on record as “To FT” and the “Recovery rate (%)” value was determined as 0%. In addition, the “Recover rate (%)” value in data set [3] is 95%. The “decomposition by Proteinase K” value in data set [4] is “hardly decomposed”.

B2: TM2 S36A: TM2 in which the 36th serine was replaced with alanine; SEQ ID NO: 6 (protein)
chain: B1 chain with S36A, A78T, A116D
modifications: Synthetic TM2 S36A
For the molecule B2, in data set [1], the “Structure (identified by FPLC)” value is recorded as “tetramer” and the “Sephacryl (mL), elution peak position” value is 46.17 mL. The “Structure (identified by FPLC)” value in data set [1] (listed as S36A) is recorded as “Tetramer”. Also, in data set [2], the “Recovery rate (%)” value is reported as 95%. In data set [3], the binding to biotin-agarose result was “efficiently adsorbs to biotin-agarose”, the “elution from biotin-agarose with an excess amount of biotin” value was “eluted by addition of an excess amount of biotin” and the “Recover rate (%)” value is 95%. In addition, the “decomposition by Proteinase K” value in data set [4] is reported as “hardly decomposed”.

B3: TM2 A66R-L97T-V113R: TM2 with A66R, L97T and V113R replacements (protein)
chain: B1 chain with A66R, A78T, L97T, V113R, A116D
For the molecule B3, in data set [1] (dimer peak), the “Structure (identified by FPLC)” value is recorded as “dimer,” and the “Sephacryl (mL), elution peak position” value is 54.38, mL. For the same molecule, in data set [1] (monomer peak), the “Structure (identified by FPLC)” value is “monomer” and the “Sephacryl (mL), elution peak position” value was 67.21 mL. In data set [1] (of the total, FPLC), the “share present as monomer” value is listed as 64.8%. Further, in data set [2], the “binding to 2-iminobiotin-agarose” value was “did not bind”, the “Note (Iminobiotin-agarose)” value is “To FT” and the “Recovery rate (%)” value was 0%. The “Recover rate (%)” value in data set [3] is 30%.

B4: TM2P46T-T78A-D116A: TM2 with P46T, T78A and D116A replacements; SEQ ID NO: 18 (protein)
chain: B1 chain with P46T
modifications: Synthetic TM2 P46T-T78A-D116A
In the case of B4, in data set [1], the “Structure (identified by FPLC)” value was “Tetramer” and the “Sephacryl (mL), elution peak position” value is reported as 48.24 mL. In data set [2], the “Recovery rate (%)” value came to 95%. Also, the “Recover rate (%)” value in data set [3] was 95%. In addition, the “decomposition by Proteinase K” value in data set [4] is on record as “hardly decomposed”.

B5: TM2 L97T-V113R: TM2 with 97th leucine replaced with threonine and 113th valine with arginine (protein)
chain: B1 chain with A78T, L97T, V113R, A116D
In the case of B5, in data set [1], the “Structure (identified by FPLC)” value was “Tetramer” and the “Sephacryl (mL), elution peak position” value worked out at 45.42 mL. Besides, in data set [2], the “binding to 2-iminobiotin-agarose” value is “did not bind”, the “Note (Iminobiotin-agarose)” value is “To FT” and the “Recovery rate (%)” value came to 0%. In data set [3], the “Recover rate (%)” value turned out to be 70%.

B6: TM2 D116A: TM2 in which the 116th aspartic acid was replaced with alanine; SEQ ID NO: 12 (protein)
chain: B1 chain with A78T
modifications: Synthetic TM2 D116A
As to B6, in data set [1], the “Structure (identified by FPLC)” value is “tetramer” and the “Sephacryl (mL), elution peak position” value turned out to be 46.22 mL. In addition, in data set [1] (listed as D116A), the “Structure (identified by FPLC)” value is given as “Tetramer”. Further, the “Recovery rate (%)” value in data set [2] is 95%. Moreover, the “Recover rate (%)” value in data set [3] turned out to be 95%. The “decomposition by Proteinase K” value in data set [4] is “hardly decomposed”.

Values taken from patent US9611303B2, “Modified biotin-binding protein” (Japan Tobacco Inc., priority 2009, dated 2017).
